Laboratory results: patent US20070224212A1
pKd: −log10 of the molar value.

How the values were obtained:
(Biotin-CCIZN23)3 [1] = test: BIAcore SPR; (biotin-CCIZN23)3 immobilized on SA chip, D5-scFv in solution
D5 IgG = test: AlphaScreen competition: peptide titrated against the binding of D5-IgG to biotinylated-IQN17
[2] = biological target: HIV-1 gp41 (strain BaL) (HIV-1 strain BaL); test: cell-based or functional assay
[3] = biological target: HIV-1 gp41 (strain 89.6) (HIV-1 strain 89.6); test: cell-based or functional assay
[4] = biological target: HIV-1 gp41 (strain HXB2) (HIV-1 strain HXB2) (UniProt P04578); test: cell-based or functional assay
[5] = biological target: HIV-1 gp41 (strain MN-1) (HIV-1 strain MN-1) (UniProt P05877); test: cell-based or functional assay
[6] = biological target: HIV-1 gp41 (strain NL4-3) (HIV-1 strain NL4-3); test: cell-based or functional assay
(Biotin-CCIZN23)3 [7] = test: BIAcore SPR; D5 IgG immobilized on CM5 chip, (biotin-CCIZN23)3 in solution
Biotin-IZN36 = test: BIAcore SPR; D5 IgG immobilized on CM5 chip, biotin-IZN36 in solution

## D5-scFv
(Biotin-CCIZN23)3 [1]
  pKd: 9.70

## IZN17 L565M (peptide)
D5 IgG
  IC50 (read off the curve): 10 nM

## D5 IgG (antibody)
[2]
  IC50, single-cycle HIV infectivity assay: 93 nM
[3]
  IC50, single-cycle HIV infectivity assay: 1750 nM
[4]
  IC50, HIV single cycle infectivity assay, HIV-HXB2: 1350 nM
  IC50, HIV-1 single-cycle infectivity assay, strain HXB2 (FIG. 17A): 144 µg/mL
  IC50, single-cycle HIV infectivity assay: 310 nM
[5]
  IC50, single-cycle HIV infectivity assay: 393 nM
[6]
  IC50, single-cycle HIV infectivity assay: 226 nM
(Biotin-CCIZN23)3 [7]
  pKd: 9.66
Biotin-IZN36
  pKd: 9.77

## T-20 (peptide)
[2]
  IC50, single-cycle HIV infectivity assay: 2.4 nM
[3]
  IC50, single-cycle HIV infectivity assay: 29 nM
[4]
  IC50, single-cycle HIV infectivity assay: 5.3 nM

## IZN17 Q567R (peptide)
D5 IgG
  IC50 (read off the curve): 10 nM
